The results in this text go back to patent publication US20180118840A1 (Eli Lilly, published 2018).

In experiment [1] the target is T1, human RANKL (receptor activator of nuclear factor kappa-B ligand) (human, UniProt O14788 140-317, limits assumed).
T1 construct: Soluble analyte in SPR; soluble hRANKL at 100 ng/mL in the reporter assay; also called hRANKL
T1 sequence (looked up): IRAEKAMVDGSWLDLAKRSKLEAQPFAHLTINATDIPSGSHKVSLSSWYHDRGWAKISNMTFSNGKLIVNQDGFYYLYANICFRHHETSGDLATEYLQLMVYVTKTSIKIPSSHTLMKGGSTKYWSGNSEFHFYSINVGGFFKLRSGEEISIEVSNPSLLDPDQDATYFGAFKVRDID
The experiment is described as follows: SPR (Biacore 2000), antibody captured on protein A, antigen as analyte, 1:1 model, average of n=5. The protocol: (§1) A CM5 chip (Biacore, pin. BR-100530) containing immobilized protein A (generated using standard NHS-EDC amine coupling) on all four flow cells (Fc) is used to employ a capture methodology. Antibody samples are prepared at 0.2-10 μg/mL by dilution into running buffer. Human Dkk-1 samples are prepared at final concentrations of 100 nM, 50 nM, 25 nM, 12.5 nM, 6.25 nM, 3.125 nM, 1.5625 nM, 0.78125 nM, 0.390625 nM, 0.1953125 nM, and 0 (blank) nM by dilution into running buffer. Human RANKL are prepared at final concentrations of 100 nM, 50 nM, 25 nM, 12.5 nM, 6.25 nM, 3.125 nM, 1.5625 nM, 0.78125 nM, 0.390625 nM, 0.1953125 nM, and 0 (blank) nM by dilution into running buffer.
(§2) Each analysis cycle consists of (1) capturing antibody samples on separate flow cells (Fc2 and Fc3); (2) injection of each human Dkk-1 concentration over all Fc at 50 μL/min for 300 seconds followed by return to buffer flow for 1200 seconds to monitor dissociation phase; (3) injection of each human RANKL concentration over all Fc at 100 μL/min for 150 seconds followed by return to buffer flow for 1800 seconds to monitor dissociation phase; (4) regeneration of chip surfaces with injection of 10 mM glycine, pH 1.5, for 120 seconds at 5 μL/min over all cells; and (5) equilibration of chip surfaces with a 10 μL (60-sec) injection of HBS-EP+. Data are processed using standard double-referencing and fit to a 1:1 binding model using Biacore 2000 Evaluation software, version 2.0.3, to determine the association rate (kₒₙ, M⁻¹s⁻¹ units), dissociation rate (koff, s⁻¹ units), and Rₘₐₓ (RU units). The equilibrium dissociation constant (KD) is calculated from the relationship KD=koff/kₒₙ, and is in molar units.
(In SPR one partner is held on a chip, and binding of the other changes the refractive index at the surface.)

Experiment [2] concerns the target T2, human Dkk-1 (Dickkopf-related protein 1) (human, UniProt O94907 32-266).
T2 construct: Soluble analyte in SPR; recombinant hDkk-1 in the reporter assay; also called hDkk-1; recombinant hDkk-1
T2 sequence (looked up): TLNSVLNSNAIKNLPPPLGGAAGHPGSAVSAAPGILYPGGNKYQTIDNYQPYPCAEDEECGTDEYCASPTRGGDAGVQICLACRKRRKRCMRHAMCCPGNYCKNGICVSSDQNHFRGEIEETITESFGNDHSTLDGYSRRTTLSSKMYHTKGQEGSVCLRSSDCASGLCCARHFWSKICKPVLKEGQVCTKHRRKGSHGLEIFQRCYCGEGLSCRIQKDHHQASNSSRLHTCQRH
The experiment is described as follows: SPR (Biacore 2000), antibody captured on protein A, antigen as analyte, 1:1 model, average of n=3. The method, then: as §1, §2

For experiment [3], the target named is T1, human RANKL (receptor activator of …). The experiment in a line: cell-based or functional assay.
Experiment [4] addresses T2, human Dkk-1 (Dickkopf-related protein 1). The experiment in a line: cell-based or functional assay.

B1: exemplified bispecific antibody compound of Table 1 (anti-Dkk-1 IgG4 mAb with anti-RANKL scFv linked at the C-terminus of each heavy chain) (bispecific antibody)
heavy: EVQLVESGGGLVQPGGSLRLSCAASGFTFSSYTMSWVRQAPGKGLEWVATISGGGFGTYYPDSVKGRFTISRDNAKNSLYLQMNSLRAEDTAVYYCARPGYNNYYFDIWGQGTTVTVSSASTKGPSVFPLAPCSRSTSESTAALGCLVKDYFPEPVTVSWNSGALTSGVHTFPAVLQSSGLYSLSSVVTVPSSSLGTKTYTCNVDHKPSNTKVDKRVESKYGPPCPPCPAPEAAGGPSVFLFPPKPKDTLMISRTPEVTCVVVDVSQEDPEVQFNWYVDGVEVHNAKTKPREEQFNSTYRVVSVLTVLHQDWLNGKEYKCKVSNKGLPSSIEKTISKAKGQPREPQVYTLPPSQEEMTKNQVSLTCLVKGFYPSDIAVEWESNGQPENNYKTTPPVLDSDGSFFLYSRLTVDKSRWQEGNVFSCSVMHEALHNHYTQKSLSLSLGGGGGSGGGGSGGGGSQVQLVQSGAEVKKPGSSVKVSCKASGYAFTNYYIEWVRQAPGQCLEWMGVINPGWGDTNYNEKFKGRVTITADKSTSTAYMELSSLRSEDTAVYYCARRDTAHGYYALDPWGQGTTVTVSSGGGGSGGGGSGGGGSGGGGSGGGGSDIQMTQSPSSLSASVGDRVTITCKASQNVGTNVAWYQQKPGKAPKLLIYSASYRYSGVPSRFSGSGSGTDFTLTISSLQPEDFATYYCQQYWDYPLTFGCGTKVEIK
light: EIVLTQSPATLSLSPGERATLSCHASDSISNSLHWYQQKPGQAPRLLIYYARQSIQGIPARFSGSGSGTDFTLTISSLEPEDFAVYYCQQSESWPLHFGGGTKVEIKRTVAAPSVFIFPPSDEQLKSGTASVVCLLNNFYPREAKVQWKVDNALQSGNSQESVTEQDSKDSTYSLSSTLTLSKADYEKHKVYACEVTHQGLSSPVTKSFNRGEC
modifications: glycosylated at asparagine residue 296 of SEQ ID NO: 1
notes: also called Exemplified Bispecific Ab
One may read the Kd as the equilibrium constant for the complex coming apart. A low value points to a tighter complex. In general, koff refers to the rate constant with which the complex falls apart. Low values mean a long-lived complex, high ones a short-lived complex. A word on the kon: it is the second-order rate constant of association. Lower therefore signals slower complex formation. In experiment [1], B1 gave a dissociation constant (Kd) of 0.0874 nM, an off-rate (koff) of 4.2e-05 s⁻¹ and an on-rate (kon) of 530000 M⁻¹ s⁻¹. In experiment [2], this molecule returned an equilibrium dissociation constant (Kd) of 0.0357 nM, a koff of 6.55e-05 s⁻¹ and an on-rate constant (kon) of 1.83e+06 M⁻¹ s⁻¹. Moreover, the “IC50, reduction of RANKL-induced NF-kB driven luciferase luminescence in HEK293 cells expressing human RANK” value in experiment [3] amounted to 1.2 nM. In experiment [4], the “EC50, restoration of Wnt3a-induced TCF/LEF luciferase luminescence in MC3T3E1/Topflash cells” value was 5.3 nM.

B2: Dkk-1 neutralizing antibody (a Dkk-1 antibody having an IgG4 backbone and the same heavy and light chain variable region sequences as the mAb portion of the … (antibody, V domains shown)
VH: EVQLVESGGGLVQPGGSLRLSCAASGFTFSSYTMSWVRQAPGKGLEWVATISGGGFGTYYPDSVKGRFTISRDNAKNSLYLQMNSLRAEDTAVYYCARPGYNNYYFDIWGQGTTVTVSS
VL: EIVLTQSPATLSLSPGERATLSCHASDSISNSLHWYQQKPGQAPRLLIYYARQSIQGIPARFSGSGSGTDFTLTISSLEPEDFAVYYCQQSESWPLHFGGGTKVEIK
Regarding B2, the “EC50, restoration of Wnt3a-induced TCF/LEF luciferase luminescence in MC3T3E1/Topflash cells” value in experiment [4] was 6.61 nM.
